The test has as its target T1, His-tagged, full-length PCSK9 (human, UniProt A8T644 31-152; Q8NBP7 153-692).
T1 construct: Target protein of the PCSK9/EGF(A) TR-FRET assay (10 nM); also called His-PCSK9; proprotein convertase subtilisin/kexin type 9
The experiment in a line: TR-FRET competition; competitor EGF(A)-Fc on His-PCSK9. Background: TR-FRET usually uses a lanthanide donor and a delayed reading to cut background.

Numbered stars: 1 amine (or outer) side, 2 acyl side, 3 side chain; on linkers, the order of the positions; unused ones are H or OH. Bridge positions count the residues as written; N and C are the ends. Square brackets hold non-standard residues; d marks the D form. Primed or numbered codes have the meaning given here. NH(CH2)9CO = O=C(CCCCCCCCCN[*:1])[*:2]; NH(CH2)8CO = O=C(CCCCCCCCN[*:1])[*:2]; hArg = N=C(N)NCCCC[C@H](N)C(=O)O; Cit = NC(=O)NCCC[C@H](N)C(=O)O; Aun = NCCCCCCCCCCC(=O)O; Hyp′ = 3-hydroxyproline; Aoc = NCCCCCCCC(=O)O; Ahp = NCCCCCCC(=O)O; Ahx = NCCCCCC(=O)O; Ava = NCCCCC(=O)O

Results on 17 molecules are retold here after US20190177366A1 (published 2019).

T1 sequence (A8T644 31-152 limits assumed, chain 1 of 2): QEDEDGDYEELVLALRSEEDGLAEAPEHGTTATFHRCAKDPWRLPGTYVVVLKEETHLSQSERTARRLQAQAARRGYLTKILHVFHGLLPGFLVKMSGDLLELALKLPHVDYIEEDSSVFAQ
T1 sequence (A8T644 other isoform, or with tags, fused parts or gaps limits assumed, chain 2 of 2): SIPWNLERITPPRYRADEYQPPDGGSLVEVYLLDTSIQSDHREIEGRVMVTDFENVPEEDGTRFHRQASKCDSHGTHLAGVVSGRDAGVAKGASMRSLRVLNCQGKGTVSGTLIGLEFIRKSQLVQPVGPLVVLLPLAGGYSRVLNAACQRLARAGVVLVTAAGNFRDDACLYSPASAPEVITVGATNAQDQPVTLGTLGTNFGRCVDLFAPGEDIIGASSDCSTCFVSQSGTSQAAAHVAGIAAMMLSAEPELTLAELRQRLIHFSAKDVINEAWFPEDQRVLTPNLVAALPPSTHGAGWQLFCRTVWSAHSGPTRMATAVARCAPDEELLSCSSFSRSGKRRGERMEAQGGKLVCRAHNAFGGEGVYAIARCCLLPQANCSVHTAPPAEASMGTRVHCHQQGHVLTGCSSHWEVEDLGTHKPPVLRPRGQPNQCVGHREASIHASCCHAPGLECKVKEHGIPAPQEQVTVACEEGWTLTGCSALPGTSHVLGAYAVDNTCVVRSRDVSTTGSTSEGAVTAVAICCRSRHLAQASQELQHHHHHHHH

B1: Compound 117 (peptide)
peptide: Ac-CRLPWNLQ[hArg]IGLPC-NH2
modifications: disulfide 1-14
SMILES: CC[C@H](C)[C@@H]1NC(=O)[C@H](CCCCNC(=N)N)NC(=O)[C@H](CCC(N)=O)NC(=O)[C@H](CC(C)C)NC(=O)[C@H](CC(N)=O)NC(=O)[C@H](Cc2c[nH]c3ccccc23)NC(=O)[C@@H]2CCCN2C(=O)[C@H](CC(C)C)NC(=O)[C@H](CCCNC(=N)N)NC(=O)[C@@H](NC(C)=O)CSSC[C@@H](C(N)=O)NC(=O)[C@@H]2CCCN2C(=O)[C@H](CC(C)C)NC(=O)CNC1=O
Consider B1, for which the IC50 was over 50 µM.

B2: Compound 63 (peptide)
peptide: Ac-MCLWNLKRIGSQCEY-NH2
modifications: disulfide 2-13
SMILES: CC[C@H](C)[C@@H]1NC(=O)[C@H](CCCNC(=N)N)NC(=O)[C@H](CCCCN)NC(=O)[C@H](CC(C)C)NC(=O)[C@H](CC(N)=O)NC(=O)[C@H](Cc2c[nH]c3ccccc23)NC(=O)[C@H](CC(C)C)NC(=O)[C@@H](NC(=O)[C@H](CCSC)NC(C)=O)CSSC[C@@H](C(=O)N[C@@H](CCC(=O)O)C(=O)N[C@@H](Cc2ccc(O)cc2)C(N)=O)NC(=O)[C@H](CCC(N)=O)NC(=O)[C@H](CO)NC(=O)CNC1=O
In the case of B2, the IC50 worked out at 14.6 µM.

B3: Compound 95 (peptide)
peptide: Ac-FCLWNLKRIGSQCEY-NH2
modifications: disulfide 2-13
SMILES: CC[C@H](C)[C@@H]1NC(=O)[C@H](CCCNC(=N)N)NC(=O)[C@H](CCCCN)NC(=O)[C@H](CC(C)C)NC(=O)[C@H](CC(N)=O)NC(=O)[C@H](Cc2c[nH]c3ccccc23)NC(=O)[C@H](CC(C)C)NC(=O)[C@@H](NC(=O)[C@H](Cc2ccccc2)NC(C)=O)CSSC[C@@H](C(=O)N[C@@H](CCC(=O)O)C(=O)N[C@@H](Cc2ccc(O)cc2)C(N)=O)NC(=O)[C@H](CCC(N)=O)NC(=O)[C@H](CO)NC(=O)CNC1=O
For B3, the half-maximal inhibitory concentration (IC50) is over 50 µM.

B4: Compound 65 (peptide)
peptide: Ac-WCLWNLKRIGSQCEY-NH2
modifications: disulfide 2-13
SMILES: CC[C@H](C)[C@@H]1NC(=O)[C@H](CCCNC(=N)N)NC(=O)[C@H](CCCCN)NC(=O)[C@H](CC(C)C)NC(=O)[C@H](CC(N)=O)NC(=O)[C@H](Cc2c[nH]c3ccccc23)NC(=O)[C@H](CC(C)C)NC(=O)[C@@H](NC(=O)[C@H](Cc2c[nH]c3ccccc23)NC(C)=O)CSSC[C@@H](C(=O)N[C@@H](CCC(=O)O)C(=O)N[C@@H](Cc2ccc(O)cc2)C(N)=O)NC(=O)[C@H](CCC(N)=O)NC(=O)[C@H](CO)NC(=O)CNC1=O
Turning to B4, the IC50 was over 50 µM.

B5: Compound 64 (peptide)
peptide: Ac-DCLWNLKRIGSQCEY-NH2
modifications: disulfide 2-13
SMILES: CC[C@H](C)[C@@H]1NC(=O)[C@H](CCCNC(=N)N)NC(=O)[C@H](CCCCN)NC(=O)[C@H](CC(C)C)NC(=O)[C@H](CC(N)=O)NC(=O)[C@H](Cc2c[nH]c3ccccc23)NC(=O)[C@H](CC(C)C)NC(=O)[C@@H](NC(=O)[C@H](CC(=O)O)NC(C)=O)CSSC[C@@H](C(=O)N[C@@H](CCC(=O)O)C(=O)N[C@@H](Cc2ccc(O)cc2)C(N)=O)NC(=O)[C@H](CCC(N)=O)NC(=O)[C@H](CO)NC(=O)CNC1=O
B5 registered a 50% inhibitory concentration (IC50) of over 50 µM.

B6: Compound 83 (peptide)
peptide: Ac-CRLPWNLQR[Aun]C-NH2
modifications: disulfide 1-11
SMILES: CC(=O)N[C@H]1CSSC[C@@H](C(N)=O)NC(=O)CCCCCCCCCCNC(=O)[C@H](CCCNC(=N)N)NC(=O)[C@H](CCC(N)=O)NC(=O)[C@H](CC(C)C)NC(=O)[C@H](CC(N)=O)NC(=O)[C@H](Cc2c[nH]c3ccccc23)NC(=O)[C@@H]2CCCN2C(=O)[C@H](CC(C)C)NC(=O)[C@H](CCCNC(=N)N)NC1=O
B6 had an IC50 of over 50 µM.

B7: Compound 36 (peptide)
peptide: Ac-SGCFIPWNLQ[Cit]IGLPC-NH2
modifications: disulfide 3-16
SMILES: CC[C@H](C)[C@@H]1NC(=O)[C@H](CCCNC(N)=O)NC(=O)[C@H](CCC(N)=O)NC(=O)[C@H](CC(C)C)NC(=O)[C@H](CC(N)=O)NC(=O)[C@H](Cc2c[nH]c3ccccc23)NC(=O)[C@@H]2CCCN2C(=O)[C@H]([C@@H](C)CC)NC(=O)[C@H](Cc2ccccc2)NC(=O)[C@@H](NC(=O)CNC(=O)[C@H](CO)NC(C)=O)CSSC[C@@H](C(N)=O)NC(=O)[C@@H]2CCCN2C(=O)[C@H](CC(C)C)NC(=O)CNC1=O
B7: the IC50 was over 50 µM.

B8: Compound 106 (peptide)
peptide: Ac-CRLP[dW]NLQRIGLPC-NH2
modifications: disulfide 1-14
SMILES: CC[C@H](C)[C@@H]1NC(=O)[C@H](CCCNC(=N)N)NC(=O)[C@H](CCC(N)=O)NC(=O)[C@H](CC(C)C)NC(=O)[C@H](CC(N)=O)NC(=O)[C@@H](Cc2c[nH]c3ccccc23)NC(=O)[C@@H]2CCCN2C(=O)[C@H](CC(C)C)NC(=O)[C@H](CCCNC(=N)N)NC(=O)[C@@H](NC(C)=O)CSSC[C@@H](C(N)=O)NC(=O)[C@@H]2CCCN2C(=O)[C@H](CC(C)C)NC(=O)CNC1=O
Consider B8, for which the IC50 was over 50 µM.

B9: Compound 89 (peptide)
peptide: H-WCLWNLKRIGSQCWF-NH2
modifications: disulfide 2-13
SMILES: CC[C@H](C)[C@@H]1NC(=O)[C@H](CCCNC(=N)N)NC(=O)[C@H](CCCCN)NC(=O)[C@H](CC(C)C)NC(=O)[C@H](CC(N)=O)NC(=O)[C@H](Cc2c[nH]c3ccccc23)NC(=O)[C@H](CC(C)C)NC(=O)[C@@H](NC(=O)[C@@H](N)Cc2c[nH]c3ccccc23)CSSC[C@@H](C(=O)N[C@@H](Cc2c[nH]c3ccccc23)C(=O)N[C@@H](Cc2ccccc2)C(N)=O)NC(=O)[C@H](CCC(N)=O)NC(=O)[C@H](CO)NC(=O)CNC1=O
B9 gave an IC50 of 6.9 µM.

B10: Compound 121 (peptide)
peptide: Ac-CRLPWNLQRI[Ahp]C-NH2
modifications: disulfide 1-12
SMILES: CC[C@H](C)[C@@H]1NC(=O)[C@H](CCCNC(=N)N)NC(=O)[C@H](CCC(N)=O)NC(=O)[C@H](CC(C)C)NC(=O)[C@H](CC(N)=O)NC(=O)[C@H](Cc2c[nH]c3ccccc23)NC(=O)[C@@H]2CCCN2C(=O)[C@H](CC(C)C)NC(=O)[C@H](CCCNC(=N)N)NC(=O)[C@@H](NC(C)=O)CSSC[C@@H](C(N)=O)NC(=O)CCCCCCNC1=O
With B10, the half-inhibitory concentration (IC50) was over 50 µM.

B11: Compound 107 (peptide)
peptide: Ac-CRL[dP]WNLQRIGLPC-NH2
modifications: disulfide 1-14
SMILES: CC[C@H](C)[C@@H]1NC(=O)[C@H](CCCNC(=N)N)NC(=O)[C@H](CCC(N)=O)NC(=O)[C@H](CC(C)C)NC(=O)[C@H](CC(N)=O)NC(=O)[C@H](Cc2c[nH]c3ccccc23)NC(=O)[C@H]2CCCN2C(=O)[C@H](CC(C)C)NC(=O)[C@H](CCCNC(=N)N)NC(=O)[C@@H](NC(C)=O)CSSC[C@@H](C(N)=O)NC(=O)[C@@H]2CCCN2C(=O)[C@H](CC(C)C)NC(=O)CNC1=O
For B11, the IC50 is over 50 µM.

B12: Compound 86 (peptide)
peptide: Ac-CRLPWNLQR[Aoc]C-NH2
modifications: disulfide 1-11
SMILES: CC(=O)N[C@H]1CSSC[C@@H](C(N)=O)NC(=O)CCCCCCCNC(=O)[C@H](CCCNC(=N)N)NC(=O)[C@H](CCC(N)=O)NC(=O)[C@H](CC(C)C)NC(=O)[C@H](CC(N)=O)NC(=O)[C@H](Cc2c[nH]c3ccccc23)NC(=O)[C@@H]2CCCN2C(=O)[C@H](CC(C)C)NC(=O)[C@H](CCCNC(=N)N)NC1=O
B12 registered an IC50 of over 50 µM.

B13: Compound 115 (peptide)
peptide: Ac-CRLPWNLQRI[Ava]C-NH2
modifications: disulfide 1-12
SMILES: CC[C@H](C)[C@@H]1NC(=O)[C@H](CCCNC(=N)N)NC(=O)[C@H](CCC(N)=O)NC(=O)[C@H](CC(C)C)NC(=O)[C@H](CC(N)=O)NC(=O)[C@H](Cc2c[nH]c3ccccc23)NC(=O)[C@@H]2CCCN2C(=O)[C@H](CC(C)C)NC(=O)[C@H](CCCNC(=N)N)NC(=O)[C@@H](NC(C)=O)CSSC[C@@H](C(N)=O)NC(=O)CCCCNC1=O
In turn, B13 showed a half-inhibitory concentration (IC50) of over 50 µM.

B14: Compound 84 (peptide)
peptide: Ac-CRLPWNLQR[NH(CH2)9CO]C-NH2
modifications: disulfide 1-11
SMILES: CC(=O)N[C@H]1CSSC[C@@H](C(N)=O)NC(=O)CCCCCCCCCNC(=O)[C@H](CCCNC(=N)N)NC(=O)[C@H](CCC(N)=O)NC(=O)[C@H](CC(C)C)NC(=O)[C@H](CC(N)=O)NC(=O)[C@H](Cc2c[nH]c3ccccc23)NC(=O)[C@@H]2CCCN2C(=O)[C@H](CC(C)C)NC(=O)[C@H](CCCNC(=N)N)NC1=O
The molecule B14 displayed a concentration for half-maximal inhibition (IC50) of over 50 µM.
Ac-SGCRL[Hyp′]WNLQRIGLPC-NH2 (disulfide 3-16) [Compound 37]: the concentration for half-maximal inhibition (IC50) was over 50 µM.

B15: Compound 116 (peptide)
peptide: Ac-CRLPWNLQRI[Ahx]C-NH2
modifications: disulfide 1-12
SMILES: CC[C@H](C)[C@@H]1NC(=O)[C@H](CCCNC(=N)N)NC(=O)[C@H](CCC(N)=O)NC(=O)[C@H](CC(C)C)NC(=O)[C@H](CC(N)=O)NC(=O)[C@H](Cc2c[nH]c3ccccc23)NC(=O)[C@@H]2CCCN2C(=O)[C@H](CC(C)C)NC(=O)[C@H](CCCNC(=N)N)NC(=O)[C@@H](NC(C)=O)CSSC[C@@H](C(N)=O)NC(=O)CCCCCNC1=O
In turn, B15 came in with an IC50 of over 50 µM.

B16: Compound 85 (peptide)
peptide: Ac-CRLPWNLQR[NH(CH2)8CO]C-NH2
modifications: disulfide 1-11
SMILES: CC(=O)N[C@H]1CSSC[C@@H](C(N)=O)NC(=O)CCCCCCCCNC(=O)[C@H](CCCNC(=N)N)NC(=O)[C@H](CCC(N)=O)NC(=O)[C@H](CC(C)C)NC(=O)[C@H](CC(N)=O)NC(=O)[C@H](Cc2c[nH]c3ccccc23)NC(=O)[C@@H]2CCCN2C(=O)[C@H](CC(C)C)NC(=O)[C@H](CCCNC(=N)N)NC1=O
Molecule B16 yielded a half-inhibitory concentration (IC50) of over 50 µM.

As a reminder, the IC50 is the midpoint of a concentration-inhibition curve. Higher therefore signals lower potency.
